# Changes are numbered by the printed parent chain.
# B1: AB3: anti-BCMA binder, AB3 Family, derived from parental PI-61 (antibody, V domains shown)
# VH: QVQLVESGGGVVQPGRSLRLSCAASGFTVSSYGMHWVRQAPGKGLEWVAVISYTGSNKYYADSVKGRFTISRDNSKNTLYLQMNSLRAEDTAVYYCGGSGYALHDDYYGLDVWGQGTLVTVSS
# VL: QSALTQPASVSGSPGQSITISCTGTSSDVGGYNYVSWYQQHPGKAPKLMIYDVSNRLRGVSNRFSGSKSGNTASLTISGLQAEDEADYYCSSYTSSSALYVFGSGTKVTVL
# B2: CD58 Full ECD: recombinant human CD58 full extracellular domain with C-terminal 8×his tag (protein)
# chain: SQQIYGVVYGNVTFHVPSNVPLKEVLWKKQKDKVAELENSEFRAFSSFKNRVYLDTVSGSLTIYNLTSSDEDEYEMESPNITDTMKFFLYVLESLPSPTLTCALTNGSIEVQCMIPEHYNSHRGLIMYSWDCPMEQCKRNSTSIYFKMENDLPQKIQCTLSNPLFNTTSSIILTTCIPSSGHSRHRGGGGSHHHHHHHH
# modifications: C-terminal 8xHis tag
# notes: recombinant human CD58 full extracellular domain with C-terminal 8×his tag
# B3: IgV V54C_G88C: CD58 domain 1 with V54 and G88 replaced by cysteines to form a disulfide bridge (protein)
# chain: SQQIYGVVYGNVTFHVPSNVPLKECLWKKQKDKVAELENSEFRAFSSFKNRVYLDTVSCSLTIYNLTSSDEDEYEMESPNITDTMKFFLYVLESGGGGSHHHHHHHH
# B4: IgV V45C_M114C: CD58 domain 1 with V45 and M114 replaced by cysteines to form a disulfide bridge (protein)
# chain: B3 chain with V16C, C25V, C59G, M85C
# B5: CD58_IgV: IgV domain (domain 1) of human CD58, without stabilizing disulfide (protein)
# chain: B3 chain with C25V, C59G
# B6: IgV V45C_M105C: CD58 domain 1 with V45 and M105 replaced by cysteines to form a disulfide bridge (protein)
# chain: B3 chain with V16C, C25V, C59G, M76C
# Test system: BCMA+ multiple myeloma cell lines
# Experiment: In vitro RTCC assays of anti-BCMA x anti-CD3 bispecific antibodies
# Type: cell-based
# Conditions: tested as anti-BCMA x anti-CD3 bispecific antibodies having VH and VL sequences of the binder
# From the text: (§1) Anti-BCMA x anti-CD3 bispecific antibodies having VH and VL sequences of AB1, AB2, and AB3 were produced.
row,Molecule,activity in in vitro RTCC assays
1,B1,active

# Test system: not listed separately
# Experiment: Thermal stability by differential scanning calorimetry (DSC)
# Type: physicochemical
# Conditions: HBS, 0.5 mg/mL; 25° C. to 100° C. at 1° C./minute
# Experimental: For DSC, all samples were dialyzed into HEPES-buffered saline (HBS) and diluted to final concentration of 0.5 mg/mL. Tm and Tonset were determined using a MicroCal VP-Capillary DSC system (Malvern) by increasing temperature from 25° C. to 100° C. at 1° C./minute with a filtering period of 2 seconds and a mid-gain setting.
Molecule,Tm (° C.) By Differential Scanning Calorimetry (DSC),Tmonset (° C.) By Differential Scanning Calorimetry (DSC)
B2,65.0 °C,48.8 °C
B3,80.9 °C,66.7 °C
B4,72.5 °C,49.6 °C
B5,60.9 °C,46.3 °C
B6,66.8 °C,43.9 °C

# Test system: KMS11-Luc multiple myeloma orthotopic tumor
# Experiment: KMS11-Luc multiple myeloma orthotopic tumor model
# Type: in vivo
# Conditions: tested as anti-BCMA x anti-CD3 bispecific antibodies having VH and VL sequences of the binder; NSG mice
# From the text: as §1
row,Molecule,anti-tumor activity
1,B1,anti-tumor activity

# Test system: not listed separately
# Experiment: Thermal stability by differential scanning fluorimetry (DSF)
# Type: physicochemical
# Conditions: Sypro Orange; 25° C. to 95° C. at 0.5° C./minute
# Experimental: Disulfide stabilized variants were assessed for improved thermal stability using both differential scanning calorimetry (DSC) and differential scanning fluorimetry (DSF) using standard techniques. For DSF, 1-3 ug of each construct was add to 1× Sypro Orange (Thermo-Fisher) in 25 ul total volume in 96-well PCR plate. Using a Bio-Rad CFX96 RT-PCR system equipped with C1000 Thermal Cycler, the temperature was increased from 25° C. to 95° C. at 0.5° C./minute and the fluorescence monitored. The manufacturer-supplied software was used to determine Tm.
row,Molecule,Tm (° C.) By Differential Scanning Fluorimetry (DSF)
1,B2,59.5 °C
2,B3,76.5 °C
3,B4,63.5 °C
4,B5,48.5 °C
5,B6,48.5 °C

# Biological target: T1, recombinant human CD2 (Homo sapiens, UniProt P06729)
# T1 construct: transiently produced and purified from HEK293 cells along with the CD2 extracellular domain; made in house; host or cells: HEK293 / HEK293F cells (transient expression)
# T1 sequence (P06729 with tags, fused parts or gaps): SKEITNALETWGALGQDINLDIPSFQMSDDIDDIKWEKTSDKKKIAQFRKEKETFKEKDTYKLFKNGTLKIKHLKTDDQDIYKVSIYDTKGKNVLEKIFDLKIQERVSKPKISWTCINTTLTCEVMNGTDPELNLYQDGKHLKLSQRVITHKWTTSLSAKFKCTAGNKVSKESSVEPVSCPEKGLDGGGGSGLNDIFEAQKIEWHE
# Experiment: Isothermal calorimetry (ITC) binding affinity of CD58 variants
# Conditions: recombinant human CD2 (100 μM) titrated into 10 μM CD58 variant in HBS, apparent KD
# Experimental: To ensure the binding affinity remained uncompromised by the additional of the stabilizing disulfide variance, isothermal calorimetry (ITC) was performed on the resulting recombinant CD58 proteins to determine their apparent KD and binding stoicheometry (n) to recombinant human CD2.
# Briefly, recombinant human CD2 and recombinant human CD58 variants were dialyzed into HEPES-buffered saline (HBS). CD2 was diluted to final concentration of 100 μM, CD58 variants were diluted to 10 μM. CD2 was titrated into 10 μM of CD58 variants via multiple injections and ΔH (kcal/mole) determined using a MicroCal VP-ITC isothermal titration calorimeter (Malvern). Titrations of CD2 into HBS were used as a reference and KD and n determined from the resulting data.
row,Molecule,Kd
1,B2,570 nM

# Reference: patent US12624118B2, “Trispecific binding molecules against BCMA and uses thereof” (Novartis AG, priority 2019, dated 2026)
